# Measurements from paper PMC7379572.
# What was measured:
# Test in all cases: EMSA
# Details in all cases: EMSA: 0.25 pmol 3'-biotin DNA, 25°C 2 h, LightShift Chemiluminescent EMSA kit buffer (composition and pH not stated), 6% DNA retardation gel, 0.5x TBE
# [1] = target: T1, XisF5 (Pseudomonas aeruginosa PA14) (UniProt A0A0H2Z817)
# T1 sequence: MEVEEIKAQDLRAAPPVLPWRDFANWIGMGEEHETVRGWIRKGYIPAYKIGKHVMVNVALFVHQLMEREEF
# [2] = system: T2, XisF4 (Pseudomonas aeruginosa PAO1), ORF:74e9b1d3
# T2 sequence: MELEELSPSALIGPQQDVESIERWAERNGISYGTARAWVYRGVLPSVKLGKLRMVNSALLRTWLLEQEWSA
# [3] = system: T3, Pf4r (Pseudomonas aeruginosa PAO1), ORF:4ff4b857
# T3 sequence: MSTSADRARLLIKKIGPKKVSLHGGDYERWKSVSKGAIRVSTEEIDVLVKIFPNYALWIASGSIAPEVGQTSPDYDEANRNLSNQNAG
Sequence,binding [1],binding [2],binding [3]
CATTTGTCGCCGGAGTACCTGCGGGACGCTATTCGACTCAACCCGCTGGCGGATTTCGACAGTTCTTCGACACTTGTCGAGACGTCCTAGATTTTTCCTTTGCATATCAATAAGTTATGAGCGCTGATTCGGCTTTGCCGA (double strand) [Pf5 attL],binds,,
CGCGGTAAAGCCTGAAAACAGAAAGCCCCTGGCACTGGTTGGTGTCAGGGGCTTTTGCATTGGGATCTGGAGCGGGCGAAGGGAATCGAACCCTCGTCATGAGCTTGGGAAGCTCAGGTAATGCCATTATACGACGCCCGCTCGGACGGCTTTTGCGGCCAGGGCGCCTTTTTACCAGATGCGCGGC (double strand) [Pf4 attB],,no binding,
TCGATTGGGAATTCCTCGCCCCGGTGGCGATGGGCTGGGCGCTGCATCACTGGTGGACGGTGATGACGGCGCTAGCGGCGGTAGGGGTGCCGCCATGAGGGGCGGGCCGCGCCGCCGGCCGGGAGCGCAAGGCATGAGCGATAGGCCGAAGGCGCGGCCGACGCCCCTGTAACACGTCAGATAAGCCACCTATTGCGGTTTCAATTCGTACCAATTTGGATCGTTAAAG (double strand) [P4 (PA0727 promoter)],,binds,
TGCGCTCCGCCCACCGTTCGATGGACTCCACATCCTGTTGCGGCCCTATCAGGGCACTGGGGCTAAGCTCTTCCAGTTCCATGCTCATTCCGTCACTATTCGTGGCATTAGCCATACGCAGCTAGAGAAATAATTACCCTGGAGAAATTATTTCCCCAAAGCCACGTCAGGGCAACTATTTCCCCGGAATAAATTTCTATATGAGCACGTCAGCCGATAGAGCAAGACTATT (double strand) [P1 (xisF4-pf4r intergenic region)],,binds,binds
TTCGCCGGGGTGATCGACACCAGCGCGGTGGAATCGGCGATCACCGATGGCCAGGGCGATATGAAGGCCATTGGCGGCTACATCGTCGGCGCCCTGGTGATCCTGGCCGTTGCCGGCCTGATCTACAGCATGTTGCGCAAGGCGTAACGGGTGCTCTGGTCGGTGTGGTTGGGGGCGTTCTTCGCCGGCGCCTTCATCACCGGGTACCGGACCGGCGAATTCTTCTAACCGAACAGACCGAGGCGGAAGCCCCCTCCGGAGTTTCCGGCAGGGGGCTTTTTTGTGTGGGGTCTTACG (double strand) [P3 (PA0724 promoter)],,no binding,
